Test: label from the status in PepcDB records

Sequence | protein production
MNRVYVGTVSAVTDIGVFVNLNKRLRGLIHRRNLGNNRFSEDEEILVQVSGIGLSGEIDLKPVKMDGYKVVEISKEVGRVEIAELENLEHHHHHH | failed
MNSEFDVIDRYFTRPRRNALLGPGDDAALIACKPGMDWAISVDTLVAGRHFFPDVDPATLGHKVLAVNLSDMAAMGATPCWATLSLTLTETLAQDDIWLKAFSSGFFALADQYQVELIGGDTTGGPLNISVQIIGEVERGKALRRSGAQPGDDIWVSGHLGDAALALQSLQQHVTLTAQEAAPCLAALHTPMPRVALGKALVNVAHSAIDISDGLLADLGHILDRSGVAATIDFDHIPRSPALKNKLQPENTVTNTICQLAIDCLLAGGDDYELCFTVPESKRDAVIQLAQESGILLSRIGKIIPGKGLTVLGTDSNPLIFKNKGYDHFSAR | failed
MNSENHPATTFKSRIKSSLPYTLAVAIIGFVSLWVRMRPYDHVFLSNGFVKFTSNDPWYHIRTLNVLLENYPQRMFFNPMTNYPYGSYIHFGPLYDQMMAITSLILGLGSPSQDLINTVGAYFPAVLGALTVIPVYYIGKYLGGRKTGILAAVFIAFAPGQFLSRSLIGFTDHHVAESLFSTFFMMFFMLAIITAKKKNLRFEDLFNKNFIVVKEPLIYSIIAGVMYSAYQLSWPGASLFLFIALVYAVVQYILDNFNGESSDYLGFTGIITFLVSAILILPFIHPELGFSMYYYTWFHVATAIGTMAGFAALSLIQREFKNRNLKAYYYPLAIFLLGFLGLLAIRFASPSVYSLIISAPNTVFGVLTGGAATIGEVSSMFYYGGTFTLSRAFGNFTVSGFFASIIGLIILLVSVIRKAKPEEVLVLVWSILMLFAIYGQNRFAYYYSINVSILSAYIGGLLLEKVKWNELDEKFKSSVKSPADIPGFLKSFRAKQVLAVLAIAVFLIYPVYGAAMVQSTGSNDPDWAWIEACLWLKSSTPDPGMDYNAIYEAPEDGKLFDYPESAYGVMSWWDYGHYIETLGHRMPNANPFQAGIGGRRGSINETNVPGAAPFLTAQSEEEATEVLESIHPDPEKSGARYIMSDERMAVDIFMAMPEWTLDTEGYMQPYWTGDGYQYLPSKRYFDSMESRLHFLDGNGLKQYRLVYETWAYQTQEAGYKQVYNFLYGSSIPEVDSGYVKIFEYVKGAKITGTVSPNETVNINTTILTGQGRTFEYSQSTSSDSEGRYEFIVPYSTEGPIPGETQFDTAPTGAYVVSYGDTTTEVRVSEEAVLNGEEIKV | failed
MNSEQADILDLLSGHTDDTTIERLAFECLLTNMTDDRVVSLMNILGWQGDFNCFAIGGVPSASLASTSLAIRKAVRDLGGEHVVIGTYGTFLLALACQMGAVTPEVTCTAVMPAFSEDEPLYLSPVRSGVAGASHALRETMFSLQAAPALSTPSRPLRADELLPERALLGDDYAREELYRNVYQVLRGENPDDPTYLTVSTFLKYGSSLENTAKELNVHPNTVRYRLKRAAETTGWDATDPRDAYVLTTALAIGRMRDR | not failed
MNSFKEGEYVLIRFGEKKFLRKLLPKQSLSVKKSVLKFDEVIGKPEGVKINGFEVYRPTLEEIILLGFERKTQIIYPKDSFYIALKLNLNKEKRVLEFGTGSGALLAVLSEVAGEVWTFEAVEEFYKTAQKNLKKFNLGKNVKFFNVDFKDAEVPEGIFHAAFVDVREPWHYLEKVHKSLMEGAPVGFLLPTANQVIKLLESIENYFGNLEVVEILHRHYKTISERFRPEDQMVAHTAYLVFGRKLKT | not failed
MNSGDNIIKKKSFTFAVRIVNLYKVLSSEIKEFVMSKQLLRSGTSVGANIREALNAQSKPGFIHKLAISQKECDETGYTNNVEFESMNTDAIELLKIVRSIIMTSKKNIIHNSLEHHHHHH | failed
MNSHCSHTFITDNRSPRARRGHAMSTLHKVKAYFGMAPMEDYDDEYYDDRAPSRGYARPRFDDDYGRYDGRDYDDARSDSRGDLRGEPADYPPPGYRGGYADEPRFRPREFDRAEMTRPRFGSWLRNSTRGALAMDPRRMAMMFEDGHPLSKITTLRPKDYSEARTIGERFRDGSPVIMDLVSMDNADAKRLVDFAAGLAFALRGSFDKVATKVFLLSPADVDVSPEERRRIAETGFYAYQ | failed
MNSILSSFKKNQKGIILILIASICTTIGQTLWKMSAMHNMLYILIGFFFYGIGAVGMIIALKYGSFSVIHPMMSMGYVFTIIVSYILLKESVGLGKIIGVILIMFGVAFIGLGDE | failed
MNSKSQQQEQQPIVFVTGTDTDVGKTFVSTLLVHKWKAAYWKPVQTGIESDQGDSETLKNFKIAASTWQPPIFTPTYALQKPLSPLQAMEYEPNVDIRLLDFVVPEEWSAENPLVVEGAGGVCVPITRKLEITTDLIKHLIETSGHPVYVVVVARSGLGTLNHTLLTWNHLCDNGLRSHLFGVILNGEPNEGNVQALKKFGVNIMAQVAQCTTAHDQDMELHELPSVESLMTQQDVE | failed
MNSMKLYIFACLCSLILWGVSCNEESAGIPTGSLFLGIEEDATLLTKAESAVTNESLRVDIIAAEGDTIKSYSDYIDEVKGKKIVLPVGTYTISVKSNQSEEAGWEKPFYSGSKEITIQSGEITSVQIVCKISNTKVAVEYADNLADYFSHYETTVSNTSGSLLYTRDETRAGFFKAEKLTADLKLVNQDGNEFAMQRVFPDIKERYFYKIKYSLDDGGGDNEEAGADFGGIIVDEKADTIYYGIFIKQEDLFGKSVPKLALDGFTENKIVYKKTENPSVPEHSLTIEAPNGIKQLKVETTSFQFADVPSFDLCNLTDAARTRLQQLDFPMQEVKDKQELTFVLTDFAKALEPASVTQMATHTFTFSVLDNLHQETTVQFIYEIRPNVNVTTEEPVVWAKFVTLRGNSIDRDNIGFMLKKKADADFQRYDATIYNEQTGDFSLLLIENIMPGTEYEYYAVSGTDAQGNVKTFTTSPIVNLKNNTFDEWFKNGKTWFPNVDVSKWWDSGNTGANTAGENNPTSPEESVVVKGKAAKLQSTWIGFIGIGAFASASMFTGNFVDIDGTNGILSFGQPFTAKPTKLTGYYKYTPVNIDYMEQWDSKVDPDLKSGDSDQCIIYIALCTKNYEIRTNPKSRQLFDPNDASVIAYGELVAKEAVSGEEANGYKKFSIDIKYRKTDVTPSYIVVVAAASRYGDYFTGGKGSTLYIDEFNLEYDYNAASFTNE | failed
MNSPANITDPLVLFMPSGKRGRFPVGTPVLDAARQLGVYVESVCGGRATCGRCQIEVQEGNFAKHKIVSSNDHISPKGPKEERYERVRGLPERRRLSCSAQILGDLVIDVPQDTVINALEHHHHHH | failed
MNSSIVNAGIDPQVRESLKSFVGEAIDYANTSGKDAAIAKFNDQNGTFVRGNLYVYAFDYNGTTLALPYQPQLIGTDLSGLQDPYGVNYTKLEHHHHHH | not failed
MNSVRKIKCLFLIFLDILFINLGYFISLCFEYGKEMKIEYFFNIRNLIILAIFTNILIFCFFNLYKNIWHMAGISECIRCLIASSISSILLILYKFIFNMDVTIVFLINSSILICMFSLLTRMSIRIFRKIYFPYKLESNLRKNVLIVGAGHCGRIVIDEMNKNNKFNPIGIVDDDLNKKGTFLNGVKVLGNRDDIEKICKRIKVDIILIAISNLSSNDKDEIIKRCENTKIKVKIIPSIYDLIDGNVKLTNIRDIDLRDLLGRDETRLDKEEVNNYIKEKIVIVTGGGGSIGSELCRQIAVFNPKKLIILDIYENYAYELENELKRNFKNLDLEVIIASIRDKSRLKKIFDKYKPDLIFHAAAHKHVPLMENNPEEAIKNNVLGTLNVAECADEFNLEKFVFISTDKAVNPTNIMGATKRIGEMIIQAMNEVSKTDFVAVRFGNVLGSNGSVIPLFIEQIKNGGPVTLTHKDITRYFMLIPEAAQLVLQAGAYAKGGEIFVLDMGKPVKIYDLTEKLIRLSGFEPNKDIQIKIVGLRPGEKLYEELILSEEELKKTKNEKIFILSPFKFDIKEIKKKIVELLNVALNEDKKAIKEKLKEIVKNYRDLEQIDFI | failed

Reference: a protein production outcome set (Wang et al. 2014)
